Experimental data taken from PMC3495302, “The putative K^+ channel subunit AtKCO3 forms stable dimers in Arabidopsis” (Frontiers in Plant Science, 2012).

B1: AtKCO3::GFP (natural protein, Arabidopsis thaliana, UniProt Q9XFR0 1-260, looked up)
chain: MPMTPSEFKNRLLFGSLPRSSSDPTDLQFTEPNVPPSLFSLPEHNDDTATDMAPDQETEQSVSKSIARQALALLVVYLSLGVLIYWLTLDSDNAYQTHPVAVALYFFVVTFCGFLIVHFVVKIGWLDSFCFSVMMVTTVGFGDRAFNTWLGTFLAAVWLLVSTLAVARAFLFLADARADKRNRERAKKVLGESISISQFFAADIDNDGRLSLAEFAIYKLKQMEKITQEDFIQICNQFDKLDRTQSGRITLVDLTTATSV
notes: AtKCO3 of Arabidopsis thaliana, locus AT5G46360; fusion of about 60 kDa; Made with pBI-35S-10H-GFP-JFH1 (Hong et al., 1999); the vector's name may mean further tag residues (surmise); source: transgenic Arabidopsis (CaMV 35S promoter, p35S-KCO3::GFP), in leaf homogenate; not shown: GFP, C-terminal, kept
B2: AtKCO3 (natural protein, Arabidopsis thaliana, UniProt Q9XFR0 1-260, looked up)
chain: MPMTPSEFKNRLLFGSLPRSSSDPTDLQFTEPNVPPSLFSLPEHNDDTATDMAPDQETEQSVSKSIARQALALLVVYLSLGVLIYWLTLDSDNAYQTHPVAVALYFFVVTFCGFLIVHFVVKIGWLDSFCFSVMMVTTVGFGDRAFNTWLGTFLAAVWLLVSTLAVARAFLFLADARADKRNRERAKKVLGESISISQFFAADIDNDGRLSLAEFAIYKLKQMEKITQEDFIQICNQFDKLDRTQSGRITLVDLTTATSV
notes: AtKCO3, putative one-pore K+ channel subunit of Arabidopsis thaliana, locus AT5G46360; cDNA from seedlings of ecotype C24; calculated mass 29 kDa; The AtKCO3 cDNA without tag was put into pBinAR-Kan; also called wild-type protein; source: transgenic Arabidopsis (CaMV 35S promoter, p35S-KCO3), in leaf homogenate
B3: γTIP (natural protein, UniProt P25818 1-251, looked up)
chain: MPIRNIAIGRPDEATRPDALKAALAEFISTLIFVVAGSGSGMAFNKLTENGATTPSGLVAAAVAHAFGLFVAVSVGANISGGHVNPAVTFGAFIGGNITLLRGILYWIAQLLGSVVACLILKFATGGLAVPAFGLSAGVGVLNAFVFEIVMTFGLVYTVYATAIDPKNGSLGTIAPIAIGFIVGANILAGGAFSGASMNPAVAFGPAVVSWTWTNHWVYWAGPLVGGGIAGLIYEVFFINTTHEQLPTTDY
notes: gamma-TIP, tonoplast aquaporin of Arabidopsis; detected with an antibody against its C-terminal nine amino acids; also called tonoplast aquaporin γTIP; source: endogenous, Arabidopsis leaf homogenate or microsomes

Molecular target: the molecule itself
Assay: velocity sucrose gradient centrifugation; leaf homogenate in 200 mM NaCl, 0.2% Triton X-100, 50 mM Tris-Cl pH 7.8; linear 5-25% sucrose gradient with 150 mM NaCl, 0.1% Triton X-100, 200,000 x g, 25 h, 4°C; fractions by SDS-PAGE and western blot; mass markers in a further gradient

In order of rising “stoichiometry N” value:
1. B1  2
2. B2  2
3. B3  4
